We go through 30 sequences from the supplement of paper PMC9170038.

This data set concerns MS2 coat protein. Kind of data set: apparent KD of MS2 coat protein; designed switch direction (-1 OFF switch, 1 ON switch): -1; higher = weaker reporter binding. Summed up:
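Stalled E. coli RNA polymerase transcribed designed RNA switches on Illumina chips, which were then titrated with SNAP-549-labelled MS2 coat protein, doubling from 0.7 or 1.5 nM to 3 µM. Steps lasted from 0.8–1.5 h at the lowest concentration to 10–20 min at the highest. The apparent KD is each design's median over clusters of curve-fitted normalised fluorescence.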

[1] abbreviates: input ligand: microRNA oligo, concentration not stated.
Setting [2] is: Eterna round: R95, input ligand: FMN 200 uM.
Where [3] appears, read: Eterna round: R95, input ligand: microRNA oligo, concentration not stated.
The mark [4] stands for this setting: Eterna round: R95, input ligand: none.

Consider “UAAGGUCGUCAAUACCUAACCACAUGAGGAUCACCCAUGUCUGAGGAUAUGAAGGCGGCCCGCCAUUAGAAGGCAGCAAGGGAA [Ustiarmadi] (Eterna round: R96, puzzle: Exclusion NG 3)”, for which the “apparent KD of MS2 coat protein” value runs as follows: (input ligand: FMN 200 uM) 13.2 nM; under setting [1], 7.89 nM; (input ligand: none) 14.4 nM.
On the same counts, the results for “UAAGUUUACCGAGGAUAUGGUUUUUCCUUUUUACCAGAAGGCGGACUCAACAUGAGGAUCACCCAUGUAUAAAGGGUAUUUGGU [JR_ExcNG1_Sub045] (Eterna round: R96, puzzle: Exclusion NG 1)” are 57.8 nM, 49.6 nM and 54 nM.
As for “UAAUAAUAGCAAGGAUAUGGUUAUUAUAAUAUACCAGAAGGUGCACAUGAGGAUCACCCAUGUUUUAUAAUUUGUAAUUUAAAU [First something] (Eterna round: R96, puzzle: Exclusion NG 1)”, under setting [1], the “apparent KD of MS2 coat protein” value amounted to 22.9 nM.
“UAAUACAAGUAAAGAUCCUACAUGAGGAUCACCCAUGUGCUCGUCUUGUAAAGUACUAUCACGAAAGUGAUAGUACU [Mat - Sensor v3 - turn-off var 1 - Eli Mod - D86] (puzzle: Sensor v3, turn-off variant 1)”: the “apparent KD of MS2 coat protein” value by setting is: under setting [2], 30.3 nM; under setting [3], 22 nM; under setting [4], 44.8 nM.
For “UAAUAUAGAGGAUAUACAUGAGGAUCACCCAUGUGAGUCCAUUAUGGGAUGAGAUCGGGUAGAAGGCUACGAAU [Eternabot (L2) Solution 28] (Eterna round: R97, puzzle: Exclusion 3)”, the “apparent KD of MS2 coat protein” value was 143 nM (input ligand: FMN 200 uM) and 57.7 nM (input ligand: none).
Turning to “UAAUGUAUAUAGGAUAUCUAGCUGGAAACAGCUAGAGAAGGAUGUACAUGAGGAUCACCCAUGUAAAUCAAUAG [Ex6/9-A2] (Eterna round: R97, puzzle: Exclusion 6)”, the “apparent KD of MS2 coat protein” value by setting is: (input ligand: FMN 200 uM) 48.3 nM; (input ligand: none) 21.8 nM.
As for “UAAUGUGCGAGAGGAUAUCGUGUACAAAGUACACGAGAAGGCUUCACAUGAGGAUCACCCAUGUAUCGAGGUGAAACACCUUGA [Omei Exc(NG)1 Bv3] (Eterna round: R96, puzzle: Exclusion NG 1)”, the “apparent KD of MS2 coat protein” value runs as follows: (input ligand: FMN 200 uM) 448 nM; under setting [1], 254 nM; (input ligand: none) 212 nM.
For the sequence “UAAUUGAUUAAUAGAUUAUACAUGAGGAUCACCCAUGUAGGUCCUACGUGCCAUUUAAGCAGCUCGUCUUAUUCCCA [Sensor-V1 #68] (Eterna round: R97, puzzle: Sensor, turn-off variant 1)”, the “apparent KD of MS2 coat protein” value worked out at 41.8 nM (input ligand: FMN 200 uM) and 49 nM (input ligand: none).
For the sequence “UAAUUGUGAGGAUAUUCGUAUAACACGGAGACGUGUUGUACGGAGAAGGCACAUGAGGAUCACCCAUGUUCCUU [Mat - Exclusion 4 - JL Mod - D18] (Eterna round: R97, puzzle: Exclusion 4)”, the “apparent KD of MS2 coat protein” value (input ligand: FMN 200 uM) was 96 nM and the “apparent KD of MS2 coat protein” value (input ligand: none) is 15.2 nM.
On the same counts, the results for “UACAGUCAUCCUUAUUGUUACAUGAGGAUCACCCAUGUUAGUAUAGUUAAGUUAUGUGAGUUUGUUGUUCGUUUUAU [JR_STOV1_v2_Sub078] (Eterna round: R97, puzzle: Sensor, turn-off variant 1)” are 125 nM and 146 nM.
Consider “UACAUGAGGAUCACCCAUGUUUUAUCAUGUGUAAUAAUAAUGUAGGAUAUGUAUUAUUUUAUUUAACAGAAGGACAAUAAUAAA [JMF's solution 2] (Eterna round: R96, puzzle: Exclusion NG 3)”, for which the “apparent KD of MS2 coat protein” value reads like this: (input ligand: FMN 200 uM) 426 nM; under setting [1], 467 nM; (input ligand: none) 524 nM.
The matching figures for “UACAUGAGGAUCACCCAUGUUUUAUCAUGUGUAAUAAUAAUGUAGGAUAUGUAUUUAUUUAUUUAACAGAAGGACAAUAAUAAA [JMF's solution 3] (Eterna round: R96, puzzle: Exclusion NG 3)”: 462 nM, 435 nM and 423 nM.
In the case of “UACAUGAGGAUCACCCAUGUUUUGUCGUGUAUGGUAUUUAUCUAGGAUAUCAAUUGAGUUAUUUAUGAGAAGGAGAAUAUUAAU [JMF's solution 59] (Eterna round: R96, puzzle: Exclusion NG 3)”, the “apparent KD of MS2 coat protein” value under setting [1] came out at 31.6 nM.
On the same count and under the same terms, to “UACAUGAGGAUCACCCAUGUUUUGUCGUGUAUGGUAUUUAUCUAGGAUAUCAAUUUGUUAAUUUAUGAGAAGGAGAAUAUUAAU [JMF's solution 69] (Eterna round: R96, puzzle: Exclusion NG 3)” belongs 29.6 nM.
As to “UACAUGAGGAUCACCCAUGUUUUGUCGUGUAUGGUAUUUAUCUAGGAUAUCAUUUGAUUUAGUUAUGAGAAGGAGAAUAUUAAU [JMF's solution 86] (Eterna round: R96, puzzle: Exclusion NG 3)”, the “apparent KD of MS2 coat protein” value is, setting by setting: (input ligand: FMN 200 uM) 33.6 nM; under setting [1], 17.2 nM; (input ligand: none) 29.9 nM.
Regarding “UACCUACAUGAGGAUCACCCAUGUCAGGAUAUCCGUGUGAACGAGUCGUUACACAGGCGGAGAAGGGACAUCGG [Eternabot (L1) Solution 65] (Eterna round: R97, puzzle: Exclusion 1)”, the “apparent KD of MS2 coat protein” value is, setting by setting: (input ligand: FMN 200 uM) 94.5 nM; (input ligand: none) 54.2 nM.
As to “UACGAGUUAGGAUAUGCUUUGGGCUCGCUUUCCUUCGAUAAACUUGAGGAUCACCCAAGUAGAAGGAACUUGUA [Mod 34 - Jieux - Exclusion 2] (Eterna round: R97, puzzle: Exclusion 2)”, the “apparent KD of MS2 coat protein” value runs as follows: (input ligand: FMN 200 uM) 49.2 nM; (input ligand: none) 29.6 nM.
Consider “UACGGGUCAGGAUAUGCGAGAGAUUGGGAAAUAGGAAGGUAGCAGAAGGGACAUGAGGAUCACCCAUGUGAAGC [JR_Exclu4_Sub097] (puzzle: Exclusion 4)”, for which the “apparent KD of MS2 coat protein” value reads like this: under setting [2], 32.2 nM; under setting [3], 25.9 nM; under setting [4], 28.8 nM.
As for “UACGUGUCAGGAUAUUUGAAGCGAAUCACGAGCAUUCGCGUGGAGAAGGGACAUGAGGAUCACCCAUGUAGGCG [Eternabot (L1) Solution 32] (Eterna round: R97, puzzle: Exclusion 4)”, the “apparent KD of MS2 coat protein” value runs as follows: (input ligand: FMN 200 uM) 370 nM; (input ligand: none) 242 nM.
The matching figures for “UACUGACAUGAGGAUCACCCAUGUGAGGAUAUUCUCCUGCCAAAUUAAUGGUGGGUGUGAAGAAGGCACAAGGA [EX1 C.12] (Eterna round: R97, puzzle: Exclusion 1)”: 98 nM and 29.1 nM.
The matching figures for “UACUGGACAGGAUAUGUUCUUGAGCACUUGAGGAUCACCCAAGUCAUCAAGAACUCAGGCACAGAAGGGUUUAUGU [salish99_ex5_r4_005] (Eterna round: R97, puzzle: Exclusion 5)”: 70.2 nM and 18.5 nM.
On to “UACUUACGAGGAUAUCGAUUGUGGUACAUGAGGAUCACCCAUGUAUGUGAUAUUGUAUUUCGAGAAGGCGUUCAGU [JR_E5_Sub061] (puzzle: Exclusion 5)”, for which the “apparent KD of MS2 coat protein” value under setting [3] was 22.7 nM.
Turning to “UACUUCCGAGGAUAUACAUGAGGAUCACCCAUGUGCUUCAGCAUCUAAUGAUGCAUGGGUAGAAGGCGGUAGUU [LRO-Excl3-20] (puzzle: Exclusion 3)”, the “apparent KD of MS2 coat protein” value under setting [3] stood at 56 nM.
As to “UACUUGUUAGGAUAUCUUACAUUUGCAUCAUAGUAACCUUUGGAGAAGGGACAUGAGGAUCACCCAUGUUUGGU [tap-tap-tappy6] (Eterna round: R97, puzzle: Exclusion 4)”, the “apparent KD of MS2 coat protein” value reads like this: (input ligand: FMN 200 uM) 49.2 nM; (input ligand: none) 72.6 nM.
“UAGAAGUCAGGAUAUCCAUGGCGGCACUUGCGUGGUGGCGUGGAGAAGGGACAUGAGGAUCACCCAUGUAAAGG [salish99-ex4-045] (Eterna round: R96, puzzle: Exclusion 4)”: the “apparent KD of MS2 coat protein” value stood at 192 nM (input ligand: FMN 200 uM), 63.1 nM under setting [1] and 100 nM (input ligand: none).
“UAGGAGUCAGGAUAUGCGAGAGAUGGAAGAAAGGGAAGAGAGCAGAAGGGACAUGAGGAUCACCCAUGUAAGGA [JR_Exclu4_Sub090] (puzzle: Exclusion 4)”: the “apparent KD of MS2 coat protein” value reads like this: under setting [2], 34.2 nM; under setting [3], 35.7 nM; under setting [4], 36.1 nM.
Turning to “UAGGUACAUGAGGAUCACCCAUGUGAGGAUAUAGAGGAAGAUUGCGAGAGGGAGAGGACUAGAAGGCACAGUGG [JR_Exclu1_Sub035] (puzzle: Exclusion 1)”, the “apparent KD of MS2 coat protein” value under setting [2] was determined as 37 nM, the “apparent KD of MS2 coat protein” value under setting [3] was 28.1 nM and the “apparent KD of MS2 coat protein” value under setting [4] was 39.9 nM.
With “UAGUACAGAGGAUAUACAUGAGGAUCACCCAUGUGUUUCAGCUAGGAGACUAGCGAAAGUAGAAGGCUGUACUA [salish99_ex3_r4_008] (Eterna round: R97, puzzle: Exclusion 3)”, the “apparent KD of MS2 coat protein” value was 22.9 nM (input ligand: FMN 200 uM) and 9.42 nM (input ligand: none).
Regarding “UAGUGAGCGUGAGGAAUAUACAUGAGGAUCACCCAUGUUUGCUACUAUCUUGCUCGUCUUAUAACAACAAUUAACUG [mod-hagla-honey#50] (Eterna round: R97, puzzle: Sensor, turn-off variant 1)”, the “apparent KD of MS2 coat protein” value amounted to 14.8 nM (input ligand: FMN 200 uM) and 16.9 nM (input ligand: none).
Turning to “UAGUUAUUCACAGGAUAUCGCCUCUUAUUACAUGAGGAUCACCCAUGUUUAUUUUGUUACAUGUUCGAGAAGGGUGUAGUCUUU [JR_ExcNG2_Sub046] (Eterna round: R96, puzzle: Exclusion NG 2)”, the “apparent KD of MS2 coat protein” value worked out at 439 nM (input ligand: FMN 200 uM), 436 nM under setting [1] and 535 nM (input ligand: none).
